This note sets out measurements from article doi:10.1101/2022.05.13.491770 (bioRxiv, 2022).

The target in assay [1] is recombinant SARS-CoV-2 RBD (SARS-CoV-2, ancestral strain (assumed), UniProt P0DTC2). As to the kind of experiment: BLI. In general terms: In BLI a coated tip is dipped into the sample, and binding shifts an interference pattern.
Assay [2] deals with SARS-CoV-2 WA.1 spike protein (V-PLEX COVID-19 Panel 24) (SARS-CoV-2 WA.1 (ancestral), UniProt P0DTC2, strain). Nature of the assay: electrochemiluminescence multiplex binding assay.

B1: 002-S21F2 full-length immunoglobulin G (IgG) (antibody, V domains shown)
VH: EVQLVQSGAEVKKPGESLKISCKASGYNFAYYWIGWVRQMPGKGLEWMGIIYPGDSDTRYSPSFQGQVTISADKSISTAYLQWSSLKASDTAMYYCARGEMTAVFGDYWGQGTLVTVSS
VL: DIQMTQSPSSLSASVGDRVTITCQASQDISNYLNWYQQKPGKAPKLLIYDASNLETGVPSRFSGSGSGTDFTLTISSLQPEDIATYYCQQYKILLTWTFGQGTKVEIK
Consider B1, for which the binding result in assay [1] and in assay [2] was “binds” throughout.
